Results as given in the supplement of paper PMC5998384.

Key:
[1] = system: HeLa Kyoto; test: thermal stability score vs G1/S (z-score of summed log2 fold changes over temperatures); higher = more thermally stable than in G1/S
[2] = system: HeLa Kyoto; test: solubility in G1/S (NP-40 vs SDS abundance) (log2 ratio); higher = more soluble; details: cell cycle stage: G1/S
[3] = system: HeLa Kyoto; test: melting temperature (median over replicates), in situ; higher = more thermally stable
[4] = system: HeLa Kyoto; test: solubility change mitosis vs G1/S (difference of NP-40 vs SDS log2 ratios) (log2 ratio difference); higher = more soluble in mitosis
[5] = cell cycle stage: early G1 (4.5 h after nocodazole release)
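Wherever melting temperature (median over replicates), in situ is given: HeLa Kyoto cells synchronized by double thymidine or nocodazole block, proteins quantified by TMT10plex mass spectrometry, three independent biological replicates.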
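Wherever solubility change mitosis vs G1/S (difference of NP-40 vs SDS log2 ratios) is given: synchronized HeLa Kyoto cells (double thymidine block for G1/S, nocodazole release for mitosis), protein amounts in NP-40 versus SDS lysates quantified by mass spectrometry, three biological replicates.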
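Wherever solubility in G1/S (NP-40 vs SDS abundance) is given: HeLa Kyoto cells arrested at G1/S by double thymidine block, proteins quantified by TMT10plex mass spectrometry in mild NP-40 versus SDS extracts, three biological replicates.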
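Wherever thermal stability score vs G1/S (z-score of summed log2 fold changes over temperatures) is given: synchronized HeLa Kyoto cells, proteins quantified by TMT10plex mass spectrometry, three biological replicates, mitosis taken 0.5 h after nocodazole release, G1/S directly after double thymidine block.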

| Sequence | thermal stability score [1, 5] | thermal stability score ([1]; cell cycle stage: mitosis) | solubility in G1/S (log2) [2] | melting temperature ([3]; cell cycle stage: G1/S) | melting temperature ([3]; cell cycle stage: mitosis) | solubility change mitosis (log2) [4] |
| --- | --- | --- | --- | --- | --- | --- |
| MELDSALEAPSQEDSNLSEELSHSAFGQAFSKILHCLARPEARRGNVKDAVLKDLGDLIEATEFDRLFEGTGARLRGMPETLGQVAKALEKYAAPSKEEEGGGDGHSEAAEKAAQVGLLFLKLLGKVETAKNSLVGPAWQTGLHHLAGPVYIFAITHSLEQPWTTPRSREVAREVLTSLLQVTECGSVAGFLHGENEDEKGRLSVILGLLKPDLYKESWKNNPAIKHVFSWTLQQVTRPWLSQHLERVLPASLVISDDYQTENKILGVHCLHHIVLNVPAADLLQYNRAQVLYHAISNHLYTPEHHLIQAVLLCLLDLFPILEKTLHWKGDGARPTTHCDEVLRLILTHMEPEHRLLLRRTYARNLPAFVNRLGILTVRHLKRLERVIIGYLEVYDGPEEEARLKILETLKLLMQHTWPRVSCRLVVLLKALLKLICDVARDPNLTPESVKSALLQEATDCLILLDRCSQGRVKGLLAKIPQSCEDRKVVNYIRKVQQVSEGAPYNGT [TTI2] | 0.152 | 0.904 | 0.208 | 50.5 °C | 49.7 °C | -0.201 |
| MGIKVQRPRCFFDIAINNQPAGRVVFELFSDVCPKTCENFRCLCTGEKGTGKSTQKPLHYKSCLFHRVVKDFMVQGGDFSEGNGRGGESIYGGFFEDESFAVKHNKEFLLSMANRGKDTNGSQFFITTKPTPHLDGHHVVFGQVISGQEVVREIENQKTDAASKPFAEVRILSCGELIPKSKVKKEEKKRHKSSSSSSSSSSDSDSSSDSQSSSDSSDSESATEEKSKKRKKKHRKNSRKHKKEKKKRKKSKKSASSESEAENLEAQPQSTVRPEEIPPIPENRFLMRKSPPKADEKERKNRERERERECNPPNSQPASYQRRLLVTRSGRKIKGRGPRRYRTPSRSRSRDRFRRSETPPHWRQEMQRAQRMRVSSGERWIKGDKSELNEIKENQRSPVRVKERKITDHRNVSESPNRKNEKEKKVKDHKSNSKERDIRRNSEKDDKYKNKVKKRAKSKSRSKSKEKSKSKERDSKHNRNEEKRMRSRSKGRDHENVKEKEKQSDSKGKDQERSRSKEKSKQLESKSNEHDHSKSKEKDRRAQSRSRECDITKGKHSYNSRTRERSRSRDRSRRVRSRTHDRDRSRSKEYHRYREQEYRRRGRSRSRERRTPPGRSRSKDRRRRRRDSRSSEREESQSRNKDKYRNQESKSSHRKENSESEKRMYSKSRDHNSSNNSREKKADRDQSPFSKIKQSSQDNELKSSMLKNKEDEKIRSSVEKENQKSKGQENDHVHEKNKKFDHESSPGTDEDKSG [PPIG] | 1.25 | 2.05 | -1.67 | 45.8 °C | 47.6 °C | 0.846 |
| MAGVEEVAASGSHLNGDLDPDDREEGAASTAEEAAKKKRRKKKKSKGPSAAGEQEPDKESGASVDEVARQLERSALEDKERDEDDEDGDGDGDGATGKKKKKKKKKRGPKVQTDPPSVPICDLYPNGVFPKGQECEYPPTQDGRTAAWRTTSEEKKALDQASEEIWNDFREAAEAHRQVRKYVMSWIKPGMTMIEICEKLEDCSRKLIKENGLNAGLAFPTGCSLNNCAAHYTPNAGDTTVLQYDDICKIDFGTHISGRIIDCAFTVTFNPKYDTLLKAVKDATNTGIKCAGIDVRLCDVGEAIQEVMESYEVEIDGKTYQVKPIRNLNGHSIGQYRIHAGKTVPIVKGGEATRMEEGEVYAIETFGSTGKGVVHDDMECSHYMKNFDVGHVPIRLPRTKHLLNVINENFGTLAFCRRWLDRLGESKYLMALKNLCDLGIVDPYPPLCDIKGSYTAQFEHTILLRPTCKEVVSRGDDY [METAP2] | -2.19 | -2.92 | -0.0489 | 58.1 °C | 57 °C | -0.0109 |
| MGQTVNEDSMDVKKENQEKTPQSSTSSVQRDDFHWEEYLKETGSISAPSECFRQSQIPPVNDFKVGMKLEARDPRNATSVCIATVIGITGARLRLRLDGSDNRNDFWRLVDSPDIQPVGTCEKEGDLLQPPLGYQMNTSSWPMFLLKTLNGSEMASATLFKKEPPKPPLNNFKVGMKLEAIDKKNPYLICPATIGDVKGDEVHITFDGWSGAFDYWCKYDSRDIFPAGWCRLTGDVLQPPGTSVPIVKNIAKTESSPSEASQHSMQSPQKTTLILPTQQVRRSSRIKPPGPTAVPKRSSSVKNITPRKKGPNSGKKEKPLPVICSTSAASLKSLTRDRGMLYKDVASGPCKIVMSTVCVYVNKHGNFGPHLDPKRIQQLPDHFGPGPVNVVLRRIVQACVDCALETKTVFGYLKPDNRGGEVITASFDGETHSIQLPPVNSASFALRFLENFCHSLQCDNLLSSQPFSSSRGHTHSSAEHDKNQSAKEDVTERQSTKRSPQQTVPYVVPLSPKLPKTKEYASEGEPLFAGGSAIPKEENLSEDSKSSSLNSGNYLNPACRNPMYIHTSVSQDFSRSVPGTTSSPLVGDISPKSSPHEVKFQMQRKSEAPSYIAVPDPSVLKQGFSKDPSTWSVDEVIQFMKHTDPQISGPLADLFRQHEIDGKALFLLKSDVMMKYMGLKLGPALKLCYYIEKLKEGKYS [SCML2] | 4.21 | 8.66 | -0.0128 | 44.9 °C | 49.1 °C | 0.137 |
| MAEDDPYLGRPEQMFHLDPSLTHTIFNPEVFQPQMALPTDGPYLQILEQPKQRGFRFRYVCEGPSHGGLPGASSEKNKKSYPQVKICNYVGPAKVIVQLVTNGKNIHLHAHSLVGKHCEDGICTVTAGPKDMVVGFANLGILHVTKKKVFETLEARMTEACIRGYNPGLLVHPDLAYLQAEGGGDRQLGDREKELIRQAALQQTKEMDLSVVRLMFTAFLPDSTGSFTRRLEPVVSDAIYDSKAPNASNLKIVRMDRTAGCVTGGEEIYLLCDKVQKDDIQIRFYEEEENGGVWEGFGDFSPTDVHRQFAIVFKTPKYKDINITKPASVFVQLRRKSDLETSEPKPFLYYPEIKDKEEVQRKRQKLMPNFSDSFGGGSGAGAGGGGMFGSGGGGGGTGSTGPGYSFPHYGFPTYGGITFHPGTTKSNAGMKHGTMDTESKKDPEGCDKSDDKNTVNLFGKVIETTEQDQEPSEATVGNGEVTLTYATGTKEESAGVQDNLFLEKAMQLAKRHANALFDYAVTGDVKMLLAVQRHLTAVQDENGDSVLHLAIIHLHSQLVRDLLEVTSGLISDDIINMRNDLYQTPLHLAVITKQEDVVEDLLRAGADLSLLDRLGNSVLHLAAKEGHDKVLSILLKHKKAALLLDHPNGDGLNAIHLAMMSNSLPCLLLLVAAGADVNAQEQKSGRTALHLAVEHDNISLAGCLLLEGDAHVDSTTYDGTTPLHIAAGRGSTRLAALLKAAGADPLVENFEPLYDLDDSWENAGEDEGVVPGTTPLDMATSWQVFDILNGKPYEPEFTSDDLLAQGDMKQLAEDVKLQLYKLLEIPDPDKNWATLAQKLGLGILNNAFRLSPAPSKTLMDNYEVSGGTVRELVEALRQMGYTEAIEVIQAASSPVKTTSQAHSLPLSPASTRQQIDELRDSDSVCDSGVETSFRKLSFTESLTSGASLLTLNKMPHDYGQEGPLEGKI [NFKB1] | 0.372 | 0.928 | 0.137 | 48 °C | 48.5 °C | -0.0714 |
| MAVFRSGLLVLTTPLASLAPRLASILTSAARLVNHTLYVHLQPGMSLEGPAQPQSSPVQATFEVLDFITHLYAGADVHRHLDVRILLTNIRTKSTFLPPLPTSVQNLAHPPEVVLTDFQTLDGSQYNPVKQQLVRYATSCYSCCPRLASVLLYSDYGIGEVPVEPLDVPLPSTIRPASPVAGSPKQPVRGYYRGAVGGTFDRLHNAHKVLLSVACILAQEQLVVGVADKDLLKSKLLPELLQPYTERVEHLSEFLVDIKPSLTFDVIPLLDPYGPAGSDPSLEFLVVSEETYRGGMAINRFRLENDLEELALYQIQLLKDLRHTENEEDKVSSSSFRQRMLGNLLRPPYERPELPTCLYVIGLTGISGSGKSSIAQRLKGLGAFVIDSDHLGHRAYAPGGPAYQPVVEAFGTDILHKDGIINRKVLGSRVFGNKKQLKILTDIMWPIIAKLAREEMDRAVAEGKRVCVIDAAVLLEAGWQNLVHEVWTAVIPETEAVRRIVERDGLSEAAAQSRLQSQMSGQQLVEQSHVVLSTLWEPHITQRQVEKAWALLQKRIPKTHQALD [COASY] | 2.77 | 4.34 | 0.236 | 48.1 °C | 48.8 °C | -0.14 |
| MAPARCFSARLRTVFQGVGHWALSTWAGLKPSRLLPQRASPRLLSVGRADLAKHQELPGKKLLSEKKLKRYFVDYRRVLVCGGNGGAGASCFHSEPRKEFGGPDGGDGGNGGHVILRVDQQVKSLSSVLSRYQGFSGEDGGSKNCFGRSGAVLYIRVPVGTLVKEGGRVVADLSCVGDEYIAALGGAGGKGNRFFLANNNRAPVTCTPGQPGQQRVLHLELKTVAHAGMVGFPNAGKSSLLRAISNARPAVASYPFTTLKPHVGIVHYEGHLQIAVADIPGIIRGAHQNRGLGSAFLRHIERCRFLLFVVDLSQPEPWTQVDDLKYELEMYEKGLSARPHAIVANKIDLPEAQANLSQLRDHLGQEVIVLSALTGENLEQLLLHLKVLYDAYAEAELGQGRQPLRW [MTG2] | -0.446 | 0.103 | 0.239 | 49.6 °C | 49.1 °C | 0.00581 |
| MRSARSTALNRGEQRAVRYYSHMKLNMAEEEDYMSDSFINVQEDIRPGLPMLRQIREARRKEEKQQEANLKNRQKSLKEEEQERRDIGLKNALGCENKGFALLQKMGYKSGQALGKSGGGIVEPIPLNIKTGKSGIGHEASLKRKAEEKLESYRKKIHMKNQAEEKAAEQFRMRLKNKQDEMKLEGDLRRSQRACQQLDVQKNIQVPREAWYWLRLEEETEEDEEEKEQDEDEYKSEDLSVLEKLQILTSYLREEHLYCIWCGTAYEDKEDLSSNCPGPTSADHD [GPATCH11] | -1.77 | -0.0183 | 0.127 | 52.1 °C | 52.3 °C | 0.138 |
| MKGKEEKEGGARLGAGGGSPEKSPSAQELKEQGNRLFVGRKYPEAAACYGRAITRNPLVAVYYTNRALCYLKMQQHEQALADCRRALELDGQSVKAHFFLGQCQLEMESYDEAIANLQRAYSLAKEQRLNFGDDIPSALRIAKKKRWNSIEERRIHQESELHSYLSRLIAAERERELEECQRNHEGDEDDSHVRAQQACIEAKHDKYMADMDELFSQVDEKRKKRDIPDYLCGKISFELMREPCITPSGITYDRKDIEEHLQRVGHFDPVTRSPLTQEQLIPNLAMKEVIDAFISENGWVEDY [STUB1] | 1.3 | 2.29 | 0.397 | 46.7 °C | 49.5 °C | 0.0745 |
| MERPLCSHLCSCLAMLALLSPLSLAQYDSWPHYPEYFQQPAPEYHQPQAPANVAKIQLRLAGQKRKHSEGRVEVYYDGQWGTVCDDDFSIHAAHVVCRELGYVEAKSWTASSSYGKGEGPIWLDNLHCTGNEATLAACTSNGWGVTDCKHTEDVGVVCSDKRIPGFKFDNSLINQIENLNIQVEDIRIRAILSTYRKRTPVMEGYVEVKEGKTWKQICDKHWTAKNSRVVCGMFGFPGERTYNTKVYKMFASRRKQRYWPFSMDCTGTEAHISSCKLGPQVSLDPMKNVTCENGLPAVVSCVPGQVFSPDGPSRFRKAYKPEQPLVRLRGGAYIGEGRVEVLKNGEWGTVCDDKWDLVSASVVCRELGFGSAKEAVTGSRLGQGIGPIHLNEIQCTGNEKSIIDCKFNAESQGCNHEEDAGVRCNTPAMGLQKKLRLNGGRNPYEGRVEVLVERNGSLVWGMVCGQNWGIVEAMVVCRQLGLGFASNAFQETWYWHGDVNSNKVVMSGVKCSGTELSLAHCRHDGEDVACPQGGVQYGAGVACSETAPDLVLNAEMVQQTTYLEDRPMFMLQCAMEENCLSASAAQTDPTTGYRRLLRFSSQIHNNGQSDFRPKNGRHAWIWHDCHRHYHSMEVFTHYDLLNLNGTKVAEGHKASFCLEDTECEGDIQKNYECANFGDQGITMGCWDMYRHDIDCQWVDITDVPPGDYLFQVVINPNFEVAESDYSNNIMKCRSRYDGHRIWMYNCHIGGSFSEETEKKFEHFSGLLNNQLSPQ [LOXL2] | 2.38 | 4.28 | -0.152 | 54.3 °C | 54.7 °C | -0.173 |
